For orientation: EC50 means the concentration giving half of the maximal effect. A low value points to greater potency.

Consider 22 molecules from patent US20240218057A1 (ROCKEFELLER UNIVERSITY, published 2024).

For the test, the target named is T1, SARS-COV-2 RBD (SARS-COV-2, UniProt P0DTC2 319-539).
T1 construct: also called WT RBD
The experiment in a line: ELISA, RBD coated on plate. In general terms: An ELISA detects its analyte on a solid surface through an enzyme-linked reagent.

B1: C1030 (antibody, V domains shown)
VH: EVQLVESGGGLVQPGGSLRLSCEASGVIVSSNYMNWVRQAPGKGPEWVSVLYAGGSTFYADSVKGRFTISRDDSKNTLFLQMNNLRAEDTAVYFCARDLIAFGMDVWGQGTTVTVSS
VL: DIQLTQSPSFLSASVGDRVTITCRASQGINSDLAWYQQKPGKAPKLLIYGASTLQSGVPSRFSGSGSGTEFSLTVSSLQPEDFATYYCQQLNSYRRFGGGTKVEIK
Consider B1, for which it took 2.78 ng/mL to reach a half-maximal effect (EC50).

B2: C903 (antibody, V domains shown)
VH: EVQLVESGGGLIQPGGSLRLSCAASGFIVSRNYMSWVRQAPGKGLEWVSIIYSGGSTFYADSVKGRFTISRDNSKNTVYLQMNSLRAEDTAVYYCARDYGDFYFDYWGQGTLVTVSS
VL: EIVLTQSPGTLSLSPGERATLSCRASQSVSSSYLAWYQQKPGQAPRLLIFDVSSRATGIPDRFSGSGSGTDFTLTISRLEPEDFAVYYCQQYGSSPRTFGQGTKVEIK
B2: the EC50 worked out at 2.54 ng/mL.

B3: C1060 (antibody, V domains shown)
VH: EVQLVESGGDLVQPGGSLRLSCAASEIIVSRNYMNWVRQAPGKGLEWVSIIYSGGSTFYGDSVKGRFTISRDSSKNTLYLQMHGLRVEDTAIYYCARSYGDYYIDYWGQGTLVTVSS
VL: DIQMTQSPSSVSASVGDRVTITCRTSQSISTSLAWYQQKPGKAPKLLIYAASSLQRGVPSRFSGTGSGTDFTLTISSLQPEDFATYYCQQSSSSPPLFTFGPGTKVDIK
For B3, the EC50 turned out to be 2.67 ng/mL.

B4: C1052 (antibody, V domains shown)
VH: QVQLVQSGAEVKKPGASVKVSCKVSGYTLSELSMHWVRQAPGEGLEWLGGFDPEDGETINAQKFQGRVTMTEDRSTDTAYMELSSLRSEDTAVYYCATRGRYCSSGNCYYHHWGQGTLVTVSS
VL: DIQMTQSPSTLSASVGDRVIITCRASQNIHNWLAWYQQKPGKAPKLLIYKASSLESGVPSRFSGSGSGTEFTLTISSLQPDDFATYFCQQYHSYSWTFGQGTKVEIK
B4: the 50% effective concentration (EC50) stood at 2.64 ng/mL.

B5: C1057 (antibody, V domains shown)
VH: QVQLVQSGAEVKKPGSSVKVSCKASGGTFTTYIISWVRQAPGQGLEWMGGISPMLGTANYAQKFQGGVTITADESTTTAYMEMSGLRSEDTAVYYCARAHMYCSDGSCYRQSGYFDSWGQGTLVTVSS
VL: QSALTQPRSVSGSPGQSVTITCTGTSSNVGGYKYVSWFQQHPGKAPKFLIYDVSERSSGVPDRFSGSKSGNTASLTISGLQAEDEADYYCCSYAGKYTVVFGGGTRLTV
B5: a half-maximal effect (EC50) was put at 2.17 ng/mL.

B6: C1053 (antibody, V domains shown)
VH: EVQLLESGGGLVQPGGSLRLSCAASGFTFSSYAMNWVRQAPGKGLEWVSAISGSGGGTYYADSVKGRFTISRDNSKNTLYLQMDSLRAEDTAVYYCAKDVPIEQQLVPTFDYWGQGALVTVSS
VL: DIQMTQSPSSLSASVGDRVTITCRASQSISRYLNWYQQKPGKAPKLLIYGASSLQSGVPSRFSGSGSGTDFTLTISSLQPEDFATYWCQQSYSTLSITFGQGTRLEIK
On to B6, for which the midpoint of the response, the EC50, lay at 4.13 ng/mL.

B7: C1061 (antibody, V domains shown)
VH: EVQLVESGGGLVQPGGSLRLSCAASGFTFSRYDMHWVRQGTGKGLEWVSAIGTSGDTYYPDSVKGRFTISRENAKNSLYLQMNSLRAGDTAVYYCARGGLQTTTWLFDYWGQGTLVTVSS
VL: DIQMTQSPSSLSASVGDRVTITCRASQSISRYLNWYQQKPGKAPKLLIYAASSLQSGVPSRFSGSGAGTDFTLTISSLQPEDFAIYYCQQSYSNPPITFGQGTRLEIK
Molecule B7 had an EC50 of 2.26 ng/mL.

B8: C1054 (antibody, V domains shown)
VH: EVQLLESGGGLVQPGGSLRLSCVVSGFTFSSYAMNWVRQAPGKGLEWVSVIGGSGDGRYYADSVKGRFTISRDNSKNTLYLQMNSLRGDDTAVYYCARDVPVEQQLVPTFDYWGQGTLVTVSS
VL: DIQMTQSPSSLSASVGDRVTITCRASQSISRYLNWYQQKPGKAPKLLIYAASSLQSGVPSRFSGSGSGTEFTLTISSLQPEDFATYYCQQSYSTLSITFGQGTRLEIK
With B8, the midpoint of the response, the EC50, lay at 1.84 ng/mL.

B9: C1062 (antibody, V domains shown)
VH: EVQLVESGGGLVQPGGSLRLSCAASGFTFSNYDMHWVRQTTGKGLEWVSAIGTAGDTYYPGSVKGRFTMSRENAKNSLYLQMNSLRAGDTAVYYCARGGLQTTTWLFDNWGQGTLVTVSS
VL: DIQMTQSPSSLSASVGDRVTITCRASQTISRYLNWYQQKPGKAPKLLIYAASSLQSGVPSRFSGSGSGTDFTLTISSLQPEDFATYYCQQSYTMPPITFGQGTRLEIK
B9 returned a concentration for a half-maximal effect (EC50) of 2.61 ng/mL.

B10: C1063 (antibody, V domains shown)
VH: EVQLVQSGAEVKKPGESLKISCKGYGNSFNNYWIAWVRQMPVKGLEWMGVINPGDSDTRYSPSFQGQVTISVDKSISTAYLQWSSLKASDTAMYYCARTWSPAAVAFFDSWGQGTLVTVS
VL: NFMLTQPHSVSESPGKTVTISCTRSSDSIGSNYVQWYQQRPGSSPTIVIYEDSQRPSGVPHRFSGSFDSSSNSASLTISGLKTEDEADYYCQSWDSGNLVFGGGTKLTVL
Take B10: the response was half-maximal at 3.04 ng/mL (EC50).

B11: C1058 (antibody, V domains shown)
VH: EVQLVESGGGLVQPGGSLRLSCAASGIIVSSNYMNWVRQVPGKGLEWVSVLYSGGSTFYADSVRGRFTISRDNSKNTLFLQMNSLRPEDTAVYYCARDFREGAFDIWGQGTMVTV
VL: DIQLTQSPSFLSASVGDRVTITCRASQGISSYLAWYQQKPGKAPNLLIYAASTLQSGVPSRFSGSGSGTDFTLTISSLQPEDFATYYCQQLNSYSPLFGQGTRLEIK
In turn, B11 showed a concentration giving a half-maximal response (EC50) of 2.13 ng/mL.

B12: C1059 (antibody, V domains shown)
VH: EVQLVESGGGLVQPGGSLRLSCAASGVTVSYNYMHWVRQAPGKGLEWVSVFFPGGSIFYADSVKGRFSISRDNSHNTLYLQMNNLRPEDTAVYYCARDFREGAIDLWGQGTMVTVSS
VL: DIQLTQSPSFLSASVEDRVTITCRASQGISSYLAWYQQKPGKAPKLLIYGASTLQSGVPSRFSGSGSGTEFTLTISSLQPEDSATYYCQQLNSYPPLFGQGTRLEIK
B12: the EC50 worked out at 2.17 ng/mL.

B13: C1068 (antibody, V domains shown)
VH: QVQLVESGGGVVQPGRSLRLSCAASGFTFSTFAMHWVRQAPGKGLEWVAVTSYDGSNKYYADSVKGRFTISRDNSKNTLYLQMNSLRAEDTAVYYCARGLLWFGESEYFQHWGQGTLVTVSS
VL: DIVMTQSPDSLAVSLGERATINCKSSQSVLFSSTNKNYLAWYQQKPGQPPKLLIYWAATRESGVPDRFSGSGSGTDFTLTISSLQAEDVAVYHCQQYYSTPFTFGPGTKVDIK
For B13, the EC50 was found to be 2.48 ng/mL.

B14: C1066 (antibody, V domains shown)
VH: EVQLVESGGGLVQPGRSLRLSCAASGFMFDDYAMHWVRQAPGKGLEWVSGINWSSADIGYVDSVKGRFTISRDNAKNSLYLQMNSLRTEDTAFYYCAKGWFGELLGGSDSWGQGTLVTVSS
VL: QLVLTQSSSASASLGSSVKLTCTLNSGHSSYIIAWHQQQPGKAPRYLMKLEGSGSYNKGSGVPDRFSGSSSGADRYLTISNLQFEDEADYYCATWDSNTQVFGGGTKLTVL
B14 yielded an EC50 of 3.01 ng/mL.

B15: C1040 (antibody, V domains shown)
VH: QVQLVESGGGVVQPGRSLRLSCAASGFSFINYNMHWVRQAPGKGLEWVAVIWYDGSNKYYADSVKGRFTISRDNSKNTLYLQMNSLRVEDTAVYYCARDPAITEAEIDYWGQGTLVTVSS
VL: DVVMTQSPLSLPVTLGQAASISCRSSQSLVHSDGNTYLNWFQQRPGQSPRRLIYRVSNRDSGVPDRFSASGSGTDFTLKISRVEAEDVGVYYCMQGTHWPWTFGQGTKVEIK
For B15, the response was half-maximal at 2.08 ng/mL (EC50).

B16: C1043 (antibody, V domains shown)
VH: EVQLVESGGGLVQPGRSLRLSCAASGFIFDNYAMHWVRQAPGKGLEWVSGISWNSDSIGYADSVKGRFTISRDNAKNSLYLQMSSLRAEDTALYYCAKDLLGNYYYYTLDVWGQGTTVTVSS
VL: QSALTQPASVSGSPGQSITISCTGTSSDIGGNNYVSWYQQHPGKAPRLMIFDVSYRPSGVSNRFSGSKSGNTASLTISGLQAEDEADYYCISYTTSSTLGVFGGGTKLTVL
B16 showed an EC50 of 2.77 ng/mL.

B17: C1065 (antibody, V domains shown)
VH: EVQLVESGGGLIQPGGSLRLSCAASGFTVSRNYMSWVRQAPGKGLEWVSVIYSGGSTFYADSVKGRFTISRDNSKNTLYLQMNSLRAEDTAVYYCARGLPTGEGWNYFDYWGQGTLVTVSS
VL: QSALTQPASVSGSPGQSITISCTGTSSDIGGYHYVSWYQQHPGKAPKLMIYDVSNRPSGISNRFSGSKSGNTASLTISGLQAEDEADYYCSSYASSSVIFGGGTKLTVL
Molecule B17 yielded an EC50 of 3.52 ng/mL.

B18: C904 (antibody, V domains shown)
VH: QVQLQQWGAGLLKPSETLSLTCAVNGGSLSLYYWSWIRQSPGKGLEWIGEINHFGGSDYKPSLKSRVSISVDTSTNQFSLKLSSVTAADTAVYYCARKPLLHSNISPGAFDIWGQGTMVTVSS
VL: EIVLTQSPGTLSLSPGERATLSCRASQSVAGSYLAWYQQKPGQAPRLLIYGASSRATGVPDRISGSGSGTDFTLTISRLEPEDFAVYYCQQYTNTPRTFGGGTKVEI
B18 registered an EC50 of 3.31 ng/mL.

B19: C1067 (antibody, V domains shown)
VH: QVQLVQSGAEVKKPGASVKVSCKASRDTFTTHYIHWVRQAPGQGLEWMGIINPSGGSISYAQKFQGRVTMTRDTSTSTVYMELSSLRSEDTAVYYCARGGIVPHLSNWFDPWGQGTLVTVSS
VL: EIVLTQSPGTLSLSPGERATLSCRASQSVSSSYLAWYQQKPGQAPRLLIYGASSRATGIPDRFTGSGSGTDFTLTISRLEPEDFAVYYCQQYGRSSGFTFGPGTKVDIK
Molecule B19 yielded an EC50 of 2.93 ng/mL.

B20: C1050 (antibody, V domains shown)
VH: EVQLVESGGGLVQPGRSLRLSCAASGFTFDDYGMHWVRQAPGKGLEWVSGISWNGDSIGYADSVKGRFTISRDNAKTSLYLQMNRLRAEDTALYYCAKAASRSTRIGGAFDIWGQGTMVTVSS
VL: QSALTQPASVSGSPGQSITISCTGTSSDVGGYNLVSWYQQHPGKAPKLMIYEGSKRPSGVSNRFSGSKSGNTASLTISGLQAEDEADYYCCSYAYSFTNVFGTGTKVTV
For B20, the concentration giving a half-maximal response (EC50) came out at 2.78 ng/mL.

B21: C1051 (antibody, V domains shown)
VH: EVQLVESGGGLVQPGRSLRLSCVASGFTFDDYGLHWVRQAPGKGLEWVSGISWNSDSIGYADSVKGRFAISRDNARTSLYLQMNRLRAEDTALYYCAKAASRSTRIGGAFDIWGQGTMVTVSS
VL: QSALTQPASVSGSPGQSITISCTGTSSDVGGYNLVSWYQQYPGKAPKLMIYEDSKRPSGVSHRFSGSKSGNTASLTISGLQAEDEADYYCCSYAFSFTNVFGTGTKVTV
The molecule B21 registered a concentration giving a half-maximal response (EC50) of 1.4 ng/mL.

B22: C1055 (antibody, V domains shown)
VH: QVQLVESGGGVVQPGRSLRLSCAASGFTFSTYGMNWVRQAPGKGLEWVALILYDGSDKYYADSVKSRFTISRDNSRNTLYLQMTSLRAEDTAVYYCAKALSSTYYYDASGPDAFDIWGQGTMVTVSS
VL: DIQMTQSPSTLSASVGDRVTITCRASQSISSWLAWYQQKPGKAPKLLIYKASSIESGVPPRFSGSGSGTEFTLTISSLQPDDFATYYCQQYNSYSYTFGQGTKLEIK
In the case of B22, the half-maximal effective concentration (EC50) was 2.71 ng/mL.
